From patent publication US20050085416A1, “Biologically active complex” (priority 2002, published 2005)
Where a chain is given by its changes, count along the chain named. In names and notes the source's numbering stands. Several values for one entry are separate records, joined by “and”; a condition that tells them apart may be missing. Equal values may be shown once. Entries after “also recorded” stand apart in the source; their conditions may differ. Read-outs that look alike come from different tables or passages of the source.

Assays:
L1210 leukaemia cells [1] = experiment: Apoptosis bioassay: L1210 cell viability by Trypan blue exclusion; format: cell-based, mouse; details: for loss of cell viability: L1210, 0.3 mg/ml; for LD50: L1210 cells; for apoptosis induction / biological activity: apoptosis assay
Procedure: The different agonists were dissolved in cell culture medium, without fetal calf serum, and added to the cells (final volume 1 ml per well). Plates were incubated at 37° C. in 5% CO2 atmosphere and 100 μl of fetal calf serum was added to each well after 30 minutes. Cell culture medium served as a control.
Cell viability was determined by Trypan blue exclusion after six hours of incubation. For analysis, 30 μl of the cell suspension was mixed with 30 μl of a 0.2% trypan blue solution and the number of stained cells (dead cells) per 100 cells was determined by interference contrast microscopy (Ortolux II, Leitz Wetzlar, Germany).

L1210 leukaemia cells [2] = experiment: DNA fragmentation (oligonucleosome length fragments, agarose gel) in L1210 cells; format: cell-based, mouse; details: L1210, six hours
Procedure: Oligonucleosome length DNA fragments were detected by agarose gel electrophoresis. The cell suspension remaining after trypan blue (970 μl, 2×10^6/ml) was lysed in 5 mM Tris, 20 mM EDTA, 0.5% Triton X-100 pH 8.0 at 4° C. for 1 hour and centrifuged at 13,000×g for 15 minutes. DNA was ethanol precipitated over night in −20° C., treated with proteinase K and RNAse, loaded on 1.8% agarose gels and electrophoresed with constant voltage set at 50V over night. DNA fragments were visualised with ethidium bromide using a 305 nm UV-light source and photographed using Polaroid type 55 positive-negative film.

[3] = Ca2+ titration in the presence of chromophoric chelator quin 2; format: binding; details: for Ca2+ binding: quin 2 titration; for Ka, calcium association constant: 2 mM Tris/HCl, chelator quin 2; for Kd: read-out: KD, calcium
Excerpt: To study the Ca^2+ binding equilibrium, the proteins listed in table 1 including the D87A BAMLET obtained as described in Example 7, and HAMLET, was titrated with calcium in the presence of a chromophoric chelator, quin 2, for which the absorbance at 263 nm decreases (approx. 85%) upon Ca^2+-binding. The method relies on competition for calcium between the protein and chelator, and can be used to quantitate high affinity sites (ca. 10^7-5·10^9 M^−1 at low salt, and ca. 5 10^5-1·10^8 M^−1 at 0.15 NaCl) when quin 2 is the chelator. The exact concentration of the chelator solution (in the range of 25-30 μM) was calculated from the absorbance at 239.5 nm in the presence of excess calcium (using ε239.5=4.2×10^4 L mol^−1 cm^−1 for quin 2). Lyophilised protein was dissolved in calcium free (<1 μM Ca^2+) chelator solution at a concentration of 25-30 μM. The absorbance at 263 nm (A263) was recorded for the protein/chelator solution using a UV/Vis 920 spectrophotometer (GBC Scientific Equipment Pty Ltd, Victoria, Australia). Calcium solution (3 mM CaCl2 in 2 mM Tris/HCl, pH 7.5, with or without 0.15 M NaCl) was added in portions of 4 μl. A263 was recorded after each calcium addition.
A more concentrated Ca^2+ stock (10 mM) was used at the end of the titrations of the proteins in 0.15 M NaCl. The data was analysed by least squares fitting directly to the measured quantity, absorbance versus total calcium concentration, using the CaLigator software (Andre and Linse, 2002).

[4] = cited from earlier work; for calcium binding: point mutants of bovine α-lactalbumin
[5] = 20° C.; cited from earlier work
[6] = Spectroscopy (near UV CD, fluorescence, ANS) after addition of excess calcium; format: binding; details: excess calcium (1 mM), no spectral changes
Procedure: The products were then subjected to spectroscopic analysis. The proteins or protein fractions were dialyzed against doubly distilled water and lyophilised. Stock solutions were prepared by dissolving the lyophilised material in 10 mM potassium phosphate buffer at pH 7.5, and concentrations determined as the absorbance at 280 nm (A/l=C (mg/ml) where 1 mg/ml of α-lactalbumin is 70 μM). The spectra were recorded at the appropriate dilution.
Circular Dichroism (CD) spectra were obtained on a JASCO J-720 spectro-polarimeter with a JASCO PTC-343 Peltier type thermostated cell holder. Quartz cuvettes were used with 1 cm path length and spectra were recorded at 25° C. between 240 and 320 nm. […] Six scans were recorded and averaged for each spectrum. Baseline spectra were recorded with pure buffer in the cuvette and substracted from the protein spectra.
Fluorescence spectra were recorded at 25° C. on a Perkin Elmer LS-50B spectrometer using a quartz cuvette with 1 cm excitation path length. Intrinsic (tryptophan) fluorescence emission spectra were recorded between 305 and 530 nm (step 1 nm) with excitation at 295 nm. […] ANS fluorescence emission spectra were recorded at 25° C. on a Perkin Elmer LS-50B spectrometer using a quartz cuvette with 1 cm excitation path length, between 400 and 600 nm (step 1 nm) with excitation at 385 nm. […]

[7] = L1210, six hours, 0.3 mg/ml, reduced from 99%
[8] = 5 mM Tris, 0.1 mM EDTA, pH 7.2, 298 K, CD 270 nm
[9] = 10 mM Tris/HCl, no salt, pH 7.5, 298 K, ITC
[10] = H2O, 100 mM KCl, pH 7, 294 K, EDTA, 43Ca-NMR
[11] = 150 mM NaCl (physiological salt)
[12] = physiological salt, 0.15 M NaCl
[13] = L1210, 6 hours' exposure, 0.5 mg/ml, from 98%

Molecule: BAMLET
- loss of cell viability (L1210 leukaemia cells [1]): equally sensitive
- cell viability (L1210 leukaemia cells [1]; L1210, 6 hours' exposure, reduced from 98%, concentration not given): 4%
- cell viability (L1210 leukaemia cells [1]; [7]): 12%
- LD50 (L1210 leukaemia cells [1]): 0.2 mg/mL
- DNA fragmentation (L1210 leukaemia cells [2]): stimulated the formation of the characteristic DNA ladder; also recorded: induces DNA fragmentation
- Ca2+ binding [3]: shown to bind Ca^2+

Molecule: α-lac bovine: bovine α-lactalbumin
- Ka [4, 8]: 2.5e+08 M⁻¹
- Ka [4, 9]: 4.3e+08 M⁻¹
- Ka ([4]; 10 mM Tris/HCl, pH 8, DSC): 2.85e+08 M⁻¹
- Ka ([4]; 10 mM ammonium bicarbonate, pH 7.8, EGTA, fluorescence): 4.8e+07 M⁻¹
- Ka ([4]; 20 mM Tris, pH 7.5, 298 K, fluorescence, Hummel & Dryer method): 2.7e+06 M⁻¹
- Ka ([4]; 20 mM Tris, pH 7.5, 298 K, microcalorimetry): 2.5e+06 M⁻¹
- Ka ([4]; 50 mM Hepes, pH 8, 293 K, fluorescence): 4e+08 M⁻¹
- Ka ([4]; 50 mM Hepes, pH 8, 310 K, fluorescence): 2e+07 M⁻¹
- Ka [4, 10]: 2e+07 M⁻¹
- Ka ([4]; H2O, 100 mM KCl, pH 8, 294-298 K, EGTA 13C-NMR): 2e+07 M⁻¹

B1: HAMLET (protein, UniProt P00709 20-142, looked up)
Alpha-lactalbumin: KQFTKCELSQLLKDIDGYGGIALPELICTMFHTSGYDTQAIVENNESTEYGLFQISNKLWCKSSQVPQSRNICDISCDKFLDDDITDDIMCAKKILDIKGIDYWLAHKALCTEKLEQWLCEKL
modifications: complex with oleic acid
- loss of cell viability (L1210 leukaemia cells [1]): died rapidly
- apoptosis induction (L1210 leukaemia cells [1]; L1210, HAMLET 0.3 mg (0.3 mg/ml)): induced apoptosis; also recorded: sufficient to kill the cells by apoptosis
- cell viability (L1210 leukaemia cells [1]; [7]): 0%
- LD50 (L1210 leukaemia cells [1]): 0.2 mg/mL
- apoptosis induction / biological activity (L1210 leukaemia cells [1]): cause apoptosis
- DNA fragmentation (L1210 leukaemia cells [2]): DNA fragmentation was induced
- DNA fragmentation (L1210 leukaemia cells [2]; listed as C18:1:9cis complex): DNA fragmentation was observed
- Ka, calcium association constant [3, 11]: 5.3.10^6 M^−1 and 5.3 · 10^6 M^−1
- Ka, calcium association constant ([3]; low salt (no added salt)): 5.9e+09 M⁻¹ and 5.9e+08 M⁻¹
- Kd ([3]; low salt): 0.0017 µM
- calcium affinity, times lower than α-lactalbumin ([3]; no salt added): 3 times
- calcium affinity, times lower than α-lactalbumin ([3]; physiological salt concentration): 1.6 times
- Kd [3, 12]: 0.19 µM
- Ca2+ binding [3]: shown to bind Ca^2+

B2: α-lac human: Native human α-lactalbumin purified from human milk (protein, UniProt P00709 20-142, looked up)
Alpha-lactalbumin: B1 Alpha-lactalbumin
- factor of decrease of Ca2+ affinity between low and physiological ionic strength [3]: 200
- Ka, calcium association constant [3, 11]: 8.3e+06 M⁻¹
- Ka, calcium association constant ([3]; 150 mM NaCl (physiological salt), listed as α-lactalbumin): 8.3e+06 M⁻¹
- Ka, calcium association constant ([3]; low salt (no added salt)): 1.8e+09 M⁻¹
- Ka, calcium association constant ([3]; low salt (no added salt), listed as α-lactalbumin): 1.8e+09 M⁻¹
- Kd ([3]; low salt): 0.00056 µM
- Kd [3, 12]: 0.12 µM
- Ka [4, 8]: 3e+08 M⁻¹
- Ka [4, 10]: 2e+07 M⁻¹
- Ka for Na+ [5]: 100 M⁻¹

B3: C18:1:11cis complex: complex of apo-α-lactalbumin with C18:1:11cis fatty acid eluted after 1M NaCl (protein, UniProt P00709 20-142, looked up)
Alpha-lactalbumin: B1 Alpha-lactalbumin
modifications: complex with C18:1:11cis fatty acid
notes: complex of apo-α-lactalbumin with C18:1:11cis fatty acid eluted after 1M NaCl
- cell viability (L1210 leukaemia cells [1]; [7]): 0%
- apoptosis induction / biological activity (L1210 leukaemia cells [1]): cause apoptosis
- DNA fragmentation (L1210 leukaemia cells [2]): DNA fragmentation was observed

B4: D87A: bovine α-lactalbumin with aspartic acid at position 87 substituted by alanine (protein, UniProt P00711 20-142, looked up, variant D87A)
Alpha-lactalbumin: EQLTKCEVFRELKDLKGYGGVSLPEWVCTTFHTSGYDTQAIVQNNDSTEYGLFQINNKIWCKDDQNPHSSNICNISCDKFLDDDLTADIMCVKKILDKVGINYWLAHKALCSEKLDQWLCEKL
- apoptosis induction / biological activity (L1210 leukaemia cells [1]): biologically inactive
- calcium binding [6]: did not bind calcium
- calcium binding [4]: totally abolished calcium binding

B5: αlac goat: goat α-lactalbumin (protein, UniProt P00712 20-142, looked up)
Alpha-lactalbumin: B4 Alpha-lactalbumin with R10Q, E11K, G17D, T30A, S70R, A87D, M90V, V92A
- Ka [4, 8]: 2.8e+08 M⁻¹
- Ka [4, 9]: 5.7e+08 M⁻¹

B6: D87N-BAMLET: protein-lipid complex of D87N mutant bovine α-lactalbumin eluted from C18:1 conditioned column (protein, UniProt P00711 20-142, looked up, variant D87N)
Alpha-lactalbumin: B4 Alpha-lactalbumin with A87N
modifications: complex with C18:1 fatty acid
notes: protein-lipid complex of D87N mutant bovine α-lactalbumin eluted from C18:1 conditioned column
- cell viability (L1210 leukaemia cells [1]; [13]): 17%
- LD50 (L1210 leukaemia cells [1]): 0.4 mg/mL
- DNA fragmentation (L1210 leukaemia cells [2]): induced DNA fragmentation similar to the BAMLET control

B7: D87A-BAMLET: protein-lipid complex of D87A mutant bovine α-lactalbumin eluted from C18:1 conditioned column (protein, UniProt P00711 20-142, looked up, variant D87A)
Alpha-lactalbumin: B4 Alpha-lactalbumin
modifications: complex with C18:1 fatty acid
notes: protein-lipid complex of D87A mutant bovine α-lactalbumin eluted from C18:1 conditioned column
- cell viability (L1210 leukaemia cells [1]; [13]): 13%
- LD50 (L1210 leukaemia cells [1]): 0.4 mg/mL
- DNA fragmentation (L1210 leukaemia cells [2]): induced DNA fragmentation similar to the BAMLET control
- Ca2+ binding [3]: no difference compared to the titration of quin 2 alone; also recorded: does not bind Ca^2+

B8: D87N: bovine α-lactalbumin with aspartic acid at position 87 substituted by asparagine (protein, UniProt P00711 20-142, looked up, variant D87N)
Alpha-lactalbumin: B4 Alpha-lactalbumin with A87N
- apoptosis induction / biological activity (L1210 leukaemia cells [1]): biologically inactive
- calcium binding [4]: still bound calcium but with lower affinity
